Experimental data: patent US10544159B2, “Artemisinin derivatives, methods for their preparation and their use as antimalarial agents” (priority 2012, dated 2020)
Several values for one entry are separate records, joined by “and”; a condition that tells them apart may be missing. Equal entries are not always repeated.

Assays:
[1] = assay type: biochemical; conditions: 250 μM artemisinin, rates measured over initial 30 seconds
Method: Measurement of Product Formation Rates and Coupling Efficiency.
Initial product formation rates were measured from 1 mL-scale reactions containing 250 μM artemisinin, 0.1-0.5 μM purified P450, and 200 μM NADPH in potassium phosphate buffer (50 mM, pH 8.0) at room temperature. After 30 seconds, the samples were extracted with dichloromethane and subjected to benzoyl chloride derivatization followed by HPLC analysis as described above. Cofactor oxidation rate in the presence of artemisinin was measured by monitoring NADPH depletion at 340 nm (ε=6.22 mM^−1 cm^−1) using 0.1 μM purified P450, 250 μM artemisinin, and 200 μM NADPH. Coupling efficiency was calculated from the ratio between the initial product formation rate and the initial NADPH oxidation rate. Reported mean and standard deviation values were calculated from experiments performed at least in triplicate.

[2] = Total turnovers and regio-/stereoselectivity of P450 variants in artemisinin hydroxylation (analytical scale); assay type: biochemical; conditions: for regioselectivity toward 6a-hydroxylation: artemisinin as substrate; for Product distribution (%) 4: share of 6a-hydroxy-ART (4); for Product distribution (%) 4 / Product distribution (%) 3 / Product distribution (%) 2: 0.5 mM artemisinin, 0.5-1 μM P450, 12 hours; for Product distribution (%) 3: share of 7(R)-hydroxy-ART (3); for Product distribution (%) 2: share of 7(S)-hydroxy-ART (2); for TTN: total turnovers on artemisinin, NADPH cofactor regeneration system, analytical scale
Method: Determination of Total Turnovers and Regio- and Stereoselectivity of the P450 Variants.
After 12 hours, 9-fluorenone was added to the mixtures as internal standard. The hydroxylation products were functionalized with benzoyl chloride followed by HPLC analysis. TTN values were calculated based on the total amount of hydroxylated products in the reactions as quantified based on the calibration curves generated using purified 2-4. The enzyme regio- and stereoselectivity was determined based on the area under the curve of the chromatographic peaks corresponding to the hydroxylation products 2, 3, and 4. Mean and standard deviation values reported for P450 variants in Table 1 were calculated from experiments performed at least in triplicate.

[3] = KD for artemisinin binding to P450 variants (heme spin-shift titration); conditions: binding of artemisinin to 3 μM purified P450, pH 8.0
Method: Determination of KD Values for Artemisinin Binding.
Binding experiments were performed using 3 μM purified P450 in potassium phosphate buffer (50 mM, pH 8.0) by titrating increasing amounts of artemisinin (5 μM to 1 mM) from an ethanol stock solution (50 mM). At each concentration, a difference spectrum from 350 to 500 nm was recorded and binding curves were generated by plotting the change in absorbance at 390 nm and 420 nm corresponding to the high-spin and low-spin state of the enzyme, respectively, against the artemisinin concentration. KD values were calculated using Sigma Plot via non-linear fitting of the experimental binding curves to an equation describing a standard 1:1 binding interaction. Reported mean and standard deviation values were calculated from experiments performed at least in triplicate.

B1: FL#62: CYP102A1-derived engineered P450 variant (SEQ ID NO. 8) (protein)
chain: MTIKEMPQPKTFGELKNLPLLNTDKPVQALMKIADELGEIFKFEAPGRVTRYLSSQRLIKEACDESRFDKNLSQALKFARDSVGDGLATSWTHEKNWKKAHNILLPSFSQQAMKGYHAMMVDIAVQLVQKWERLNADEHIEVSEDMTRLTLDTIGLCGFNYRFNSFYRDQPHPFIISMVRTLDEVMNKLQRANPDDPVYDENKRQCQEDIKVMNDLVDKIIADRKARGEQSDDLLTQMLNGKDPETGEPLDDGNISYQIITFLIAGHETTSGLLSFALYFLVKNPHVLQKVAEEAARVLVDPVPSYKQVKQLKYVGMVLNEALRLWPTAPAFSLYAKEDTVLGGEYPLEKGDEVMVLIPQLHRDKTIWGDDVEEFRPERFENPSAIPQHAFKPFGNGQRACIGQQFALHEATLVLGMMLKHFDFEDHTNYELDIKETLTLKPEGFVVKAKSKKIPLGGIPSPSTEQSAKKVRKKAENAHNTPLLVLYGSNMGTAEGTARDLADIAMSKGFAPQVATLDSHAGNLPREGAVLIVTASYNGHPPDNAKQFVDWLDQASADEVKGVRYSVFGCGDKNWATTYQKVPAFIDETLAAKGAENIADRGEADASDDFEGTYEEWREHMWSDVAAYFNLDIENSEDNKSTLSLQFVDSAADMPLAKMHGAFSTNVVASKELQQPGSARSTRHLEIELPKEASYQEGDHLGVIPRNYEGIVNRVTARFGLDASQQIRLEAEEEKLAHLPLAKTVSVEELLQYVELQDPVTRTQLRAMAAKTVCPPHKVELEALLEKQAYKEQVLAKRLTMLELLEKYPACEMKFSEFIALLPSIRPRYYSISSSPRVDEKQASITVSVVSGEAWSGYGEYKGIASNYLAELQEGDTITCFISTPQSEFTLPKDPETPLIMVGPGTGVAPFRGFVQARKQLKEQGQSLGEAHLYFGCRSPHEDYLYQEELENAQSEGIITLHTAFSRMPNQPKTYVQHVMEQDGKKLIELLDQGAHFYICGDGSQMAPAVEATLMKSYADVHQVSEADARLWLQQLEEKGRYAKDVWAG
- Product formation rate [1]: 316 ± 20 Mole product per mole P450 per minute
- regioselectivity toward 6a-hydroxylation [2]: 7%
- Product distribution (%) 4 [2]: 7%
- Product distribution (%) 3 [2]: 10%
- Product distribution (%) 2 [2]: 83%
- Kd [3]: 29 ± 5 µM

B2: V-H2: FL#62-derived P450 variant (SEQ ID NO. 10) (protein)
chain: MTIKEMPQPKTFGELKNLPLLNTDKPVQALMKIADELGEIFKFEAPGRVTRYLSSQRLIKEACDESRFDKNLSQALKFSRDIAGDGLATSWTHEKNWKKAHNILLPSFSQQAMKGYHAMMVDIAVQLVQKWERLNADEHIEVSEDMTRLTLDTIGLCGFNYRFNSFYRDQPHPFIISMVRTLDEVMNKLQRANPDDPVYDENKRQCQEDIKVMNDLVDKIIADRKARGEQSDDLLTQMLNGKDPETGEPLDDGNISYQIITFLIAGHETTSGLLSFALYFLVKNPHVLQKVAEEAARVLVDPVPSYKQVKQLKYVGMVLNEALRLWPTAPAFSLYAKEDTVLGGEYPLEKGDEVMVLIPQLHRDKTIWGDDVEEFRPERFENPSAIPQHAFKPFGNGQRACIGQQFALHEATLVLGMMLKHFDFEDHTNYELDIKETLTLKPEGFVVKAKSKKIPLGGIPSPSTEQSAKKVRKKAENAHNTPLLVLYGSNMGTAEGTARDLADIAMSKGFAPQVATLDSHAGNLPREGAVLIVTASYNGHPPDNAKQFVDWLDQASADEVKGVRYSVFGCGDKNWATTYQKVPAFIDETLAAKGAENIADRGEADASDDFEGTYEEWREHMWSDVAAYFNLDIENSEDNKSTLSLQFVDSAADMPLAKMHGAFSTNVVASKELQQPGSARSTRHLEIELPKEASYQEGDHLGVIPRNYEGIVNRVTARFGLDASQQIRLEAEEEKLAHLPLAKTVSVEELLQYVELQDPVTRTQLRAMAAKTVCPPHKVELEALLEKQAYKEQVLAKRLTMLELLEKYPACEMKFSEFIALLPSIRPRYYSISSSPRVDEKQASITVSVVSGEAWSGYGEYKGIASNYLAELQEGDTITCFISTPQSEFTLPKDPETPLIMVGPGTGVAPFRGFVQARKQLKEQGQSLGEAHLYFGCRSPHEDYLYQEELENAQSEGIITLHTAFSRMPNQPKTYVQHVMEQDGKKLIELLDQGAHFYICGDGSQMAPAVEATLMKSYADVHQVSEADARLWLQQLEEKGRYAKDVWAG
- Product formation rate [1]: 41 ± 2 Mole product per mole P450 per minute
- Product distribution (%) 4 [2]: 4%
- Product distribution (%) 3 [2]: 0%
- Product distribution (%) 2 [2]: 96%
- TTN [2]: 434 ± 21
- Kd [3]: 45 ± 10 µM

B3: X-F11: II-E2-derived P450 variant (SEQ ID NO. 15), 6a-hydroxylating (protein)
chain: MTIKEMPQPKTFGELKNLPLLNTDKPVQALMKIADELGEIFKFEAPGRVTRYLSSQRLIKEACDESRFDKNLSQTLKFNRDFAGDGLATSWTHEKNWKKAHNILLPSFSQQAMKGYHAMMVDIAVQLVQKWERLNADEHIEVSEDMTRLTLDTIGLCGFNYRFNSFYRDQPHPFIISMVRALDESMNKLQRANPDDPVYDENKRQCQEDIKVMNDLVDKIIADRKARGEQSDDLLTQMLNGKDPETGEPLDDGNISYQIITFLIAGHETTSGLLSFALYFLVKNPHVLQKVAEEAARVLVDPVPSYKQVKQLKYVGMVLNEALRLWPTAPAFSLYAKEDTVLGGEYPLEKGDEVMVLIPQLHRDKTIWGDDVEEFRPERFENPSAIPQHAFKPFGNGQRACIGQQFALHEATLVLGMMLKHFDFEDHTNYELDIKETLTLKPEGFVVKAKSKKIPLGGIPSPSTEQSAKKVRKKAENAHNTPLLVLYGSNMGTAEGTARDLADIAMSKGFAPQVATLDSHAGNLPREGAVLIVTASYNGHPPDNAKQFVDWLDQASADEVKGVRYSVFGCGDKNWATTYQKVPAFIDETLAAKGAENIADRGEADASDDFEGTYEEWREHMWSDVAAYFNLDIENSEDNKSTLSLQFVDSAADMPLAKMHGAFSTNVVASKELQQPGSARSTRHLEIELPKEASYQEGDHLGVIPRNYEGIVNRVTARFGLDASQQIRLEAEEEKLAHLPLAKTVSVEELLQYVELQDPVTRTQLRAMAAKTVCPPHKVELEALLEKQAYKEQVLAKRLTMLELLEKYPACEMKFSEFIALLPSIRPRYYSISSSPRVDEKQASITVSVVSGEAWSGYGEYKGIASNYLAELQEGDTITCFISTPQSEFTLPKDPETPLIMVGPGTGVAPFRGFVQARKQLKEQGQSLGEAHLYFGCRSPHEDYLYQEELENAQSEGIITLHTAFSRMPNQPKTYVQHVMEQDGKKLIELLDQGAHFYICGDGSQMAPAVEATLMKSYADVHQVSEADARLWLQQLEEKGRYAKDVWAG
- Product formation rate [1]: 56 ± 2 Mole product per mole P450 per minute
- regioselectivity toward 6a-hydroxylation [2]: 92%
- Product distribution (%) 4 [2]: 92%
- Product distribution (%) 3 [2]: 8%
- Product distribution (%) 2 [2]: 0%
- TTN [2]: 376 ± 19
- Kd [3]: 234 ± 29 µM

B4: X-E12: II-E2-derived P450 variant (SEQ ID NO. 14), 6a-hydroxylating (protein)
chain: MTIKEMPQPKTFGELKNLPLLNTDKPVQALMKIADELGEIFKFEAPGRVTRYLSSQRLIKEACDESRFDKNLSQVLKFNRDFAGDGLATSWTHEKNWKKAHNILLPSFSQQAMKGYHAMMVDIAVQLVQKWERLNADEHIEVSEDMTRLTLDTIGLCGFNYRFNSFYRDQPHPFIISMVRTADETMNKLQRANPDDPVYDENKRQCQEDIKVMNDLVDKIIADRKARGEQSDDLLTQMLNGKDPETGEPLDDGNISYQIITFLIAGHETTSGLLSFALYFLVKNPHVLQKVAEEAARVLVDPVPSYKQVKQLKYVGMVLNEALRLWPTAPAFSLYAKEDTVLGGEYPLEKGDEVMVLIPQLHRDKTIWGDDVEEFRPERFENPSAIPQHAFKPFGNGQRACIGQQFALHEATLVLGMMLKHFDFEDHTNYELDIKETLTLKPEGFVVKAKSKKIPLGGIPSPSTEQSAKKVRKKAENAHNTPLLVLYGSNMGTAEGTARDLADIAMSKGFAPQVATLDSHAGNLPREGAVLIVTASYNGHPPDNAKQFVDWLDQASADEVKGVRYSVFGCGDKNWATTYQKVPAFIDETLAAKGAENIADRGEADASDDFEGTYEEWREHMWSDVAAYFNLDIENSEDNKSTLSLQFVDSAADMPLAKMHGAFSTNVVASKELQQPGSARSTRHLEIELPKEASYQEGDHLGVIPRNYEGIVNRVTARFGLDASQQIRLEAEEEKLAHLPLAKTVSVEELLQYVELQDPVTRTQLRAMAAKTVCPPHKVELEALLEKQAYKEQVLAKRLTMLELLEKYPACEMKFSEFIALLPSIRPRYYSISSSPRVDEKQASITVSVVSGEAWSGYGEYKGIASNYLAELQEGDTITCFISTPQSEFTLPKDPETPLIMVGPGTGVAPFRGFVQARKQLKEQGQSLGEAHLYFGCRSPHEDYLYQEELENAQSEGIITLHTAFSRMPNQPKTYVQHVMEQDGKKLIELLDQGAHFYICGDGSQMAPAVEATLMKSYADVHQVSEADARLWLQQLEEKGRYAKDVWAG
- Product formation rate [1]: 72 ± 3 Mole product per mole P450 per minute
- regioselectivity toward 6a-hydroxylation [2]: 94%
- Product distribution (%) 4 [2]: 94%
- Product distribution (%) 3 [2]: 2%
- Product distribution (%) 2 [2]: 4%
- TTN [2]: 113 and 113 ± 12
- Kd [3]: 300 ± 24 µM
